Experimental findings from paper PMC10172140 are described below.

For experiment [1], the target named is BRIL-wt-KOR(54–368) reconstituted into nanodiscs (human) (UniProt P41145).
A further experiment addresses KOR N336^8.49A (human) (UniProt P41145).
Another experiment addresses KOR R156^3.50A (human) (UniProt P41145).
Experiment [2] has as its target κ-opioid receptor in homogenous membrane fractions expressing KOR (human) (UniProt P41145).

Turning to “wild-type Gi1 heterotrimeric G protein (from UniProt P63096 1-354; P62873 1-340; P59768 1-71) (complex)”, the fold increase of the high-affinity binding sites (Bmax) for the agonist radioligand ^3H-U69,593 in saturation binding, with 1 μM G protein against KOR alone in experiment [1] was determined as 62 fold. Besides, in the experiment with KOR N336^8.49A (human), the loss in potency of agonist-mediated Gi1 coupling against wild-type KOR, BRET2 was found to be 2 fold.
“wild-type Gg (gustducin) heterotrimeric G protein (from UniProt A8MTJ3 1-354; P62873 1-340; P59768 1-71) (complex)”: in experiment [1], the fold increase of the high-affinity binding sites (Bmax) for the agonist radioligand ^3H-U69,593 in saturation binding, with 1 μM G protein against KOR alone amounted to 7 fold. Also, the efficacy of GR89,696-mediated Gg activation, BRET2, normalized to U50,488 was 46% in the experiment with KOR R156^3.50A (human) and 103% in experiment [2]. In addition, the values for the efficacy of momSalB-mediated Gg activation, BRET2, normalized to U50,488 (in the experiment with KOR R156^3.50A (human); in experiment [2]) were 38% and 106%, respectively.
“wild-type Gz heterotrimeric G protein (from UniProt P19086 1-355; P62873 1-340; P59768 1-71) (complex)” returned a fold increase of the high-affinity binding sites (Bmax) for the agonist radioligand ^3H-U69,593 in saturation binding, with 1 μM G protein against KOR alone in experiment [1] of 14 fold. The substance further yielded a loss in potency of agonist-mediated Gz coupling against wild-type KOR, BRET2 in the experiment with KOR N336^8.49A (human) of 9 fold.
“wild-type GoA heterotrimeric G protein (from UniProt P09471 1-354; P62873 1-340; P59768 1-71) (complex)” registered a fold increase of the high-affinity binding sites (Bmax) for the agonist radioligand ^3H-U69,593 in saturation binding, with 1 μM G protein against KOR alone in experiment [1] of 38 fold. Besides, the loss in potency of agonist-mediated GoA coupling against wild-type KOR, BRET2 with KOR N336^8.49A (human) is 14 fold.
